Laboratory results reported in paper PMC3126750.
Each block holds one molecule with its values, some of them ahead of it.

Assays:
Ubp6 = Ubp6 (UniProt P43593); experiment: anti-Flag affinity purification of 26S proteasome, immunoblot densitometry; settings: no detergent in binding; normalized to Rpn11FLAG; parent: est. 100; read off a plot
Rad23 = Rad23 (UniProt P32628); experiment: as above; settings: no detergent in binding; normalized to Rpn11FLAG; parent: est. 100; read off a plot
Dsk2 = Dsk2 (UniProt P48510); experiment: as above; settings: no detergent in binding; normalized to Rpn11FLAG; parent: est. 100; read off a plot
Ddi1 = Ddi1 (UniProt P40087); experiment: as above; settings: no detergent in binding; normalized to Rpn11FLAG; parent: est. 100; read off a plot
[1] = target: 26S proteasome from rpn13Δ cells (Rpn11-Flag) (S. cerevisiae) (UniProt P38764); experiment: affinity purification with mass spectrometry; SILAC: rpn13Δ cells heavy, rpn13Δ rpn1-D517A cells light, mixed 1:1 before lysis; proteasomes purified on anti-Flag resin, eluted in 8 M urea
UniProt P38764, sequence (P38764 whole entry, looked up, stated change not applied): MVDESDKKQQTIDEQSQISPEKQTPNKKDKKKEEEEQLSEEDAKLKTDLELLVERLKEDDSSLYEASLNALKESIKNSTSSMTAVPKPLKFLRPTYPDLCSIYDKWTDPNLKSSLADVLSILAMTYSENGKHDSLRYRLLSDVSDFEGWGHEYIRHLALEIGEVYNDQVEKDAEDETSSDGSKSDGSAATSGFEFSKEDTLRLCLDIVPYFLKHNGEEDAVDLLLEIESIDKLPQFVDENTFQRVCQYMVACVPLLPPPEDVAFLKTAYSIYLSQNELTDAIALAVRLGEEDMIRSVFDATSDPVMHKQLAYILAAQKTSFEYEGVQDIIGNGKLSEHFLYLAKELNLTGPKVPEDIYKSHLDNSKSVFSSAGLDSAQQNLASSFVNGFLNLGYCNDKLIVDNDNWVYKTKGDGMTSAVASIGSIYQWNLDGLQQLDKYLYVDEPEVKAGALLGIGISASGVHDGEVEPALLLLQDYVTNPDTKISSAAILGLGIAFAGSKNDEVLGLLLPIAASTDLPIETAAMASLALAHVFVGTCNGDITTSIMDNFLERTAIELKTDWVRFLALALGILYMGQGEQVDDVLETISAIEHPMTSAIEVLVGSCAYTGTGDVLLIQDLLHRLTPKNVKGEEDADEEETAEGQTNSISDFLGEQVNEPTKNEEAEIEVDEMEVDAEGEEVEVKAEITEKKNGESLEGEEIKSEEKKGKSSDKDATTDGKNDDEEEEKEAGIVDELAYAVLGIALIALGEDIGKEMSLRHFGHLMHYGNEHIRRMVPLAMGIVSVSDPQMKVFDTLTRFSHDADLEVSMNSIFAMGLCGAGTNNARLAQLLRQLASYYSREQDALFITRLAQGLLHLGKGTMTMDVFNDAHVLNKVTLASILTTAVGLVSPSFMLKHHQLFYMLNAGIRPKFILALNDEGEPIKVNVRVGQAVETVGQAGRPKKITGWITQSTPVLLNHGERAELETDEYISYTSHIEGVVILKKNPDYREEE

UniProt P48510, sequence (P48510 whole entry, looked up): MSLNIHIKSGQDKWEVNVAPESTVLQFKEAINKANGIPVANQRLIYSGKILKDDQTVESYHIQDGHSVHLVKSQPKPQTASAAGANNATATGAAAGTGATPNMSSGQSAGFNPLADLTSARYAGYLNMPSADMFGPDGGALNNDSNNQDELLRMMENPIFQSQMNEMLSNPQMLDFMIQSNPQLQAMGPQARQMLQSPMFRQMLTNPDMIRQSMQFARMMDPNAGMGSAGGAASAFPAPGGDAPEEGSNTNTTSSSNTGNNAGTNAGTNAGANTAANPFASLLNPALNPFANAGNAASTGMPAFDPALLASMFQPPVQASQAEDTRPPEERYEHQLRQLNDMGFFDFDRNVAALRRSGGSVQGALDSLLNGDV
UniProt P40087, sequence (P40087 whole entry, looked up): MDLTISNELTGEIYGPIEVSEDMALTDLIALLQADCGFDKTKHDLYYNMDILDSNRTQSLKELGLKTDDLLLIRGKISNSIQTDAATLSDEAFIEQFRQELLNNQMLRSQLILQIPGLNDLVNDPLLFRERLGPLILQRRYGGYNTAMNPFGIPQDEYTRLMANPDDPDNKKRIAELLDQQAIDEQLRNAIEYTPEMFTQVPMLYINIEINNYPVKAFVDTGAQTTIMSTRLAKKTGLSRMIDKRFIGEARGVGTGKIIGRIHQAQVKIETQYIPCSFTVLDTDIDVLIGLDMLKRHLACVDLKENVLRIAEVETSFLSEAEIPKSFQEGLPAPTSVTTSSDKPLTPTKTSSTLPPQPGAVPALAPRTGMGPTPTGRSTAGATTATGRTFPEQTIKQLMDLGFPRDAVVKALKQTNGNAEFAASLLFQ

percent of parent (% Protein Relative to WT) (Ubp6): 110 | percent of parent (% Protein Relative to WT) (Rad23): 76 | percent of parent (% Protein Relative to WT) (Dsk2): 61 | percent of parent (% Protein Relative to WT) (Ddi1): 29
Molecule: 26S proteasome from rpn13Δ cells (Rpn11-Flag) (from UniProt P38764;P43588) D517A

percent of parent (% Protein Relative to WT) (Ubp6): 110 | percent of parent (% Protein Relative to WT) (Rad23): 95 | percent of parent (% Protein Relative to WT) (Dsk2): 86 | percent of parent (% Protein Relative to WT) (Ddi1): 80
Molecule: 26S proteasome from rpn13Δ cells (Rpn11-Flag) (from UniProt P38764;P43588) K484A

SILAC H/L ratio (rpn13Δ proteasomes, heavy, over rpn13Δ rpn1-D517A proteasomes, light) [1]: 0.98
Molecule: Ubp6 (from UniProt P43593 1-499) (enzyme)

SILAC H/L ratio (rpn13Δ proteasomes, heavy, over rpn13Δ rpn1-D517A proteasomes, light) [1]: 0.9
B1: Rad23 (natural protein)
chain: MVSLTFKNFKKEKVPLDLEPSNTILETKTKLAQSISCEESQIKLIYSGKVLQDSKTVSECGLKDGDQVVFMVSQKKSTKTKVTEPPIAPESATTPGRENSTEASPSTDASAAPAATAPEGSQPQEEQTATTERTESASTPGFVVGTERNETIERIMEMGYQREEVERALRAAFNNPDRAVEYLLMGIPENLRQPEPQQQTAAAAEQPSTAATTAEQPAEDDLFAQAAQGGNASSGALGTTGGATDAAQGGPPGSIGLTVEDLLSLRQVVSGNPEALAPLLENISARYPQLREHIMANPEVFVSMLLEAVGDNMQDVMEGADDMVEGEDIEVTGEAAAAGLGQGEGEGSFQVDYTPEDDQAISRLCELGFERDLVIQVYFACDKNEEAAANILFSDHAD
